Our source for the Kd and kon values is patent US20170015742A1 (published 2017).

One assay addresses VEGF-A (UniProt P15692-4 27-191, limits assumed). The experiment in a line: SPR (Biacore), DVD-Ig captured by anti-human Fc, antigen in flow. As to the method: (§1) For example, approximately 9000 RU of goat anti-human Fc specific polyclonal antibody (Thermo Fisher Scientific Inc., Rockford, Ill.) diluted in 10 mM sodium acetate (pH 4.5) is directly immobilized across a CM5 research grade biosensor chip using a standard amine coupling kit according to manufacturer's instructions and procedures at 25 μg/ml. Unreacted moieties on the biosensor surface were blocked with ethanolamine. For kinetic analysis, rate equations derived from the 1:1 Langmuir binding model were fitted simultaneously to multiple antigen injections (using global fit analysis) with the use of Scrubber 2 (BioLogic Software), Biacore Biaevaluation 4.0.1 software or Biacore T100 Evaluation software. Purified antibodies or DVD-Ig molecules were diluted in running buffer for capture across goat anti-human Fc reaction surfaces. Antibodies or DVD-Ig molecules to be captured as a ligand (1 μg/ml) were injected over reaction matrices at a flow rate of 10 μl/minute. During the assay, all measurements were referenced against the capture surface alone (i.e., with no captured antibody or DVD-Ig molecule). […] The equilibrium dissociation constant KD (M) of the reaction between antibodies and the target antigen was then calculated from the kinetic rate constants by the following formula: KD=Koff/Kₒₙ. Binding was recorded as a function of time and kinetic rate constants were calculated.
(SPR reads the build-up and loss of mass on a sensor chip optically.)

The target of a further assay is PDGF-BB (UniProt P01127 82-190). The assay is described as above. As to the method: as §1
Sequence of PDGF-BB (P01127 82-190): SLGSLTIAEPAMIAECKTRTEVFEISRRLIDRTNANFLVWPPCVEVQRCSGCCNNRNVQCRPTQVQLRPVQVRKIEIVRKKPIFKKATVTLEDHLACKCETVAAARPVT

Sequence of VEGF-A (P15692 other isoform, or with tags, fused parts or gaps limits assumed): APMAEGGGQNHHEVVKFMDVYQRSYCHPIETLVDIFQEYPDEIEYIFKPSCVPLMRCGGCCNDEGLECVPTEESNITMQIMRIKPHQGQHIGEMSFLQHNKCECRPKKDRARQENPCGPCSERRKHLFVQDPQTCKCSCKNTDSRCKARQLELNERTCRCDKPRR

B1: 4G8.3-GS(9)-9E8.4 (g) (PR-1572102) (bispecific antibody, human IgG1, kappa, L234A L235A)
heavy: EVQLVQSGSELKKPGASVKVSCKASGYTFTNYGMYWVRQAPGQGLEWMGWINTETGKPTYADDFKGRFVFSLDTSVSTAYLQISSLKAEDTAVYYCARTNYYYRSYIFYFDYWGQGTMVTVSSGGGGSGGGGSEVTLRESGPALVKPTQTLTLTCTFSGFSLSTYGMGVGWIRQPPGKALEWLANIWWDDDKYYNPSLKNRLTISKDTSKNQVVLTMTNMDPVDTATYYCARIESIGTTYSFDYWGQGTMVTVSSASTKGPSVFPLAPSSKSTSGGTAALGCLVKDYFPEPVTVSWNSGALTSGVHTFPAVLQSSGLYSLSSVVTVPSSSLGTQTYICNVNHKPSNTKVDKKVEPKSCDKTHTCPPCPAPEAAGGPSVFLFPPKPKDTLMISRTPEVTCVVVDVSHEDPEVKFNWYVDGVEVHNAKTKPREEQYNSTYRVVSVLTVLHQDWLNGKEYKCKVSNKALPAPIEKTISKAKGQPREPQVYTLPPSREEMTKNQVSLTCLVKGFYPSDIAVEWESNGQPENNYKTTPPVLDSDGSFFLYSKLTVDKSRWQQGNVFSCSVMHEALHNAYTQKSLSLSPGK
light: DTVLTQSPATLSLSPGERATLSCRASESVSTHMHWYQQKPGQAPRLLIYGASNLESGVPARFSGSGSGTDFTLTISSLEPEDFAVYFCQQSWNDPFTFGQGTKLEIKRGGSGGGGSGEFVLTQSPGTLSLSPGERATLSCERSSGDIGDSYVSWYQQKPGQAPRLVIYADDQRPSGIPDRFSGSGSGTDFTLTISRLEPEDFAVYYCQSYDINIDIVFGGGTKVEIKRTVAAPSVFIFPPSDEQLKSGTASVVCLLNNFYPREAKVQWKVDNALQSGNSQESVTEQDSKDSTYSLSSTLTLSKADYEKHKVYACEVTHQGLSSPVTKSFNRGEC
notes: DVD-Ig; outer hBDB-4G8.3 (VEGF), linkers GS-H10/GS-L10, inner hBDI-9E8.4 (PDGF); human IgG1 L234A, L235A, H435A / kappa; also called 4G8.3-GS-9E8.4 (g); hu VEGF 4G8.3-GS-hu PDGF 9E8.4 (germline) [hu IgG1/k]; LALA H435A
What is called Kd is a measure of binding affinity in units of concentration. Lower therefore signals higher affinity. The kon is the second-order rate constant of association. The low end stands for slow association, the high end for fast association. With B1, in the assay with VEGF-A, the Kd amounted to 0.013 nM and the kon came to 6e+06 M⁻¹ s⁻¹. Besides, in the assay with PDGF-BB, the Kd came out at 0.013 nM and the kon stood at 1.3e+07 M⁻¹ s⁻¹.

B2: 4G8.3-GS-9E8.4 (PR-1564010) (bispecific antibody, human IgG1, kappa, L234A L235A)
heavy: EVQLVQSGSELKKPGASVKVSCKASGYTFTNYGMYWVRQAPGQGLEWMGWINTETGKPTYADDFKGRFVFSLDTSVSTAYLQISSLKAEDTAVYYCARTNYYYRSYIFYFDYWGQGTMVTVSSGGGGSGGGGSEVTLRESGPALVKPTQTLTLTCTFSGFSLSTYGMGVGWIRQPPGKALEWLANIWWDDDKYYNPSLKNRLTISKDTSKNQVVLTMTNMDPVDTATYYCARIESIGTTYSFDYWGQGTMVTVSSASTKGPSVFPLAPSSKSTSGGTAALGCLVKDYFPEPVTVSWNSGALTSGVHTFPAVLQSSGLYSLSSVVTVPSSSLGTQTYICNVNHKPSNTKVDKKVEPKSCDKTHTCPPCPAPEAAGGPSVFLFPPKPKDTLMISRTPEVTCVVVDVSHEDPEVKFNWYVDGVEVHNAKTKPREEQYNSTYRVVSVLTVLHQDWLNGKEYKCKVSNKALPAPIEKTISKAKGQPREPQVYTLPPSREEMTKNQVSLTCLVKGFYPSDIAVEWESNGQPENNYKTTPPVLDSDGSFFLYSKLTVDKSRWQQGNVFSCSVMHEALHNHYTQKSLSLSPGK
light: DTVLTQSPATLSLSPGERATLSCRASESVSTHMHWYQQKPGQAPRLLIYGASNLESGVPARFSGSGSGTDFTLTISSLEPEDFAVYFCQQSWNDPFTFGQGTKLEIKRGGSGGGGSGEFVLTQSPGTLSLSPGERATLSCERSSGDIGDSYVSWYQQKPGQAPRLVIYADDQRPSGIPDRFSGSGSGTDFTLTISRLEPEDFAVYYCQSYDINIDIVFGGGTKVEIKGTVAAPSVFIFPPSDEQLKSGTASVVCLLNNFYPREAKVQWKVDNALQSGNSQESVTEQDSKDSTYSLSSTLTLSKADYEKHKVYACEVTHQGLSSPVTKSFNRGEC
notes: DVD-Ig; outer hBDB-4G8.3 (VEGF), linkers GS-H10/GS-L10, inner hBDI-9E8.4 (PDGF); human IgG1 L234A, L235A / kappa
B2: in the assay with VEGF-A, the affinity, expressed as Kd, was 0.017 nM and the kon was 3.3e+06 M⁻¹ s⁻¹. Further, in the assay with PDGF-BB, the Kd was determined as 0.013 nM and the kon worked out at 1e+07 M⁻¹ s⁻¹.

B3: 4G8.3-GS(noR)-9E8.4 (g) (PR-1572104) (bispecific antibody, human IgG1, kappa, L234A L235A)
heavy: EVQLVQSGSELKKPGASVKVSCKASGYTFTNYGMYWVRQAPGQGLEWMGWINTETGKPTYADDFKGRFVFSLDTSVSTAYLQISSLKAEDTAVYYCARTNYYYRSYIFYFDYWGQGTMVTVSSGGGGSGGGGSEVTLRESGPALVKPTQTLTLTCTFSGFSLSTYGMGVGWIRQPPGKALEWLANIWWDDDKYYNPSLKNRLTISKDTSKNQVVLTMTNMDPVDTATYYCARIESIGTTYSFDYWGQGTMVTVSSASTKGPSVFPLAPSSKSTSGGTAALGCLVKDYFPEPVTVSWNSGALTSGVHTFPAVLQSSGLYSLSSVVTVPSSSLGTQTYICNVNHKPSNTKVDKKVEPKSCDKTHTCPPCPAPEAAGGPSVFLFPPKPKDTLMISRTPEVTCVVVDVSHEDPEVKFNWYVDGVEVHNAKTKPREEQYNSTYRVVSVLTVLHQDWLNGKEYKCKVSNKALPAPIEKTISKAKGQPREPQVYTLPPSREEMTKNQVSLTCLVKGFYPSDIAVEWESNGQPENNYKTTPPVLDSDGSFFLYSKLTVDKSRWQQGNVFSCSVMHEALHNAYTQKSLSLSPGK
light: DTVLTQSPATLSLSPGERATLSCRASESVSTHMHWYQQKPGQAPRLLIYGASNLESGVPARFSGSGSGTDFTLTISSLEPEDFAVYFCQQSWNDPFTFGQGTKLEIKGGSGGGGSGGEFVLTQSPGTLSLSPGERATLSCERSSGDIGDSYVSWYQQKPGQAPRLVIYADDQRPSGIPDRFSGSGSGTDFTLTISRLEPEDFAVYYCQSYDINIDIVFGGGTKVEIKRTVAAPSVFIFPPSDEQLKSGTASVVCLLNNFYPREAKVQWKVDNALQSGNSQESVTEQDSKDSTYSLSSTLTLSKADYEKHKVYACEVTHQGLSSPVTKSFNRGEC
notes: DVD-Ig; outer hBDB-4G8.3 (VEGF), linkers GS-H10/GS-L10(dR), inner hBDI-9E8.4 (PDGF); human IgG1 L234A, L235A, H435A / kappa
In the assay with VEGF-A, B3 displayed a Kd of 0.011 nM and a kon of 6.1e+06 M⁻¹ s⁻¹. In the assay with PDGF-BB, the Kd was 0.0089 nM and the kon amounted to 1.5e+07 M⁻¹ s⁻¹.

B4: DVD3904 (PR-1565031) (bispecific antibody, human IgG1, kappa, L234A L235A)
heavy: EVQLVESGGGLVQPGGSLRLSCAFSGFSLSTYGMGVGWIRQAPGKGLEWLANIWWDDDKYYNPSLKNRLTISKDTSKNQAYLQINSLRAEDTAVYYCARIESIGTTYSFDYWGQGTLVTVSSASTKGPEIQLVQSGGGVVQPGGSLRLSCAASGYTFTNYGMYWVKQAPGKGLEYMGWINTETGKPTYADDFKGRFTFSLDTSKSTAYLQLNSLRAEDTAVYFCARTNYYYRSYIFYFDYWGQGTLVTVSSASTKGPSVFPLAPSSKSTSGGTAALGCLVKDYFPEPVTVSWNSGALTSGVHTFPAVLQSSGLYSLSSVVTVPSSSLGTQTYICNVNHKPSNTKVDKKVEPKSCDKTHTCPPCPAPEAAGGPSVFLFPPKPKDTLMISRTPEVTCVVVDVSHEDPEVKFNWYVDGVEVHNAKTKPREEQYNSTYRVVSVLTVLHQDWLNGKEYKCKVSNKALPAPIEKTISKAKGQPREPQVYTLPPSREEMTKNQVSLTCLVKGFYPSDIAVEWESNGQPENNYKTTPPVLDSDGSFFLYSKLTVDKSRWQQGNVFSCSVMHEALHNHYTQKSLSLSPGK
light: DFQLTQSPSSLSASVGDRVTITCERSSGDIGDSYVSWYQQKPGKAPKNVIYADDQRPSGVPSRFSGSGSGNSASLTISSLQPEDFATYFCQSYDINIDIVFGQGTKVEIKGTVAAPSVFIFPPDTVLTQSPSTLSASPGERATISCRASESVSTHMHWYQQKPGQAPKLLIYGASNLESGVPSRFSGSRSGTDFTLTISSLQPEDFAVYFCQQSWNDPFTFGQGTKVEIKRTVAAPSVFIFPPSDEQLKSGTASVVCLLNNFYPREAKVQWKVDNALQSGNSQESVTEQDSKDSTYSLSSTLTLSKADYEKHKVYACEVTHQGLSSPVTKSFNRGEC
notes: DVD-Ig; linkers HG-short/LK-long, inner hBDB-4G8.14 (VEGF); human IgG1 L234A, L235A / kappa
Take B4: in the assay with VEGF-A, binding was put at a Kd of 0.19 nM and the kon worked out at 610000 M⁻¹ s⁻¹. In the assay with PDGF-BB, this molecule gave a Kd of 0.09 nM and a kon of 1e+07 M⁻¹ s⁻¹.

B5: 9E8.4-LS-4G8.3 (PR-1564009) (bispecific antibody, human IgG1, kappa, L234A L235A)
heavy: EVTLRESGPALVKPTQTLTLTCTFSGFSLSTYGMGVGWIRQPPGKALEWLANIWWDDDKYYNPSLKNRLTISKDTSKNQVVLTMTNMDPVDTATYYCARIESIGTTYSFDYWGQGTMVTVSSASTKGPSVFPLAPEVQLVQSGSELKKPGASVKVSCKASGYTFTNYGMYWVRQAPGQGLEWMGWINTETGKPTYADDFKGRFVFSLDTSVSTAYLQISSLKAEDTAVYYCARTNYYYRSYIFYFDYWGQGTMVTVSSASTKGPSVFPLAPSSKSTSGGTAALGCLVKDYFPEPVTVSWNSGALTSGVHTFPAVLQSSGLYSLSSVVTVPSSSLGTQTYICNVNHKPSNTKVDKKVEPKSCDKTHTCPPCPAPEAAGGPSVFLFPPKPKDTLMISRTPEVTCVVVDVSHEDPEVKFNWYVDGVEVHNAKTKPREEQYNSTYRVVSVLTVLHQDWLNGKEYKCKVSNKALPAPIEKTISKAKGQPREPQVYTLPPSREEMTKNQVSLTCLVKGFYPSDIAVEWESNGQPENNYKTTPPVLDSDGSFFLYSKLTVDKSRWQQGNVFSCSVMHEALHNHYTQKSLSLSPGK
light: EFVLTQSPGTLSLSPGERATLSCERSSGDIGDSYVSWYQQKPGQAPRLVIYADDQRPSGIPDRFSGSGSGTDFTLTISRLEPEDFAVYYCQSYDINIDIVFGGGTKVEIKGTVAAPDTVLTQSPATLSLSPGERATLSCRASESVSTHMHWYQQKPGQAPRLLIYGASNLESGVPARFSGSGSGTDFTLTISSLEPEDFAVYFCQQSWNDPFTFGQGTKLEIKRTVAAPSVFIFPPSDEQLKSGTASVVCLLNNFYPREAKVQWKVDNALQSGNSQESVTEQDSKDSTYSLSSTLTLSKADYEKHKVYACEVTHQGLSSPVTKSFNRGEC
notes: DVD-Ig; outer hBDI-9E8.4 (PDGF), linkers HG-long/LK-short, inner hBDB-4G8.3 (VEGF); human IgG1 L234A, L235A / kappa
Take B5: in the assay with VEGF-A, the Kd is 0.2 nM and the kon came to 270000 M⁻¹ s⁻¹. Further, in the assay with PDGF-BB, the Kd came out at 0.02 nM and the kon came to 1e+07 M⁻¹ s⁻¹.
